The data set in a line: self-splicing fitness, log relative to wild type (ln ratio); higher = more splicing; Tetrahymena group I intron in knt gene, E. coli kanamycin selection, DiMSum; sequences stand for … in CUCUCU…GGAGGGAAAAGUUAUCAGGCAUGCACCUGGUAGCUAGUCUUUAAACCAAUAGAUUGCAUCGGUUUAAAAGGCAAGACCGUCAAAUUGCGGGAAAGGGGUCAACAGCCGUUCAGUACCAAGUCUCAGGGGAAACUUUGAGAUGGCCUUGCAAAGGGUAUGGUAAUAAGCUGACGGACAUGGUCCUAACCACGCAGCCAAGUCCUAAGUCAACAGAUCUUCUGUUGAUAUGGAUGCAGUUCACAGACUAAAUGUCGGUCGGGGAAGAUGUAUUCUUCUCAUAAGAUAUAGUCGGACCUCUCCUUAAUGGGAGCUAGCGGAUGAAGUGAUGCAACACUGGAGCCGCUGGGAACUAAUUUGUAUGCGAAAGUAUAUUGAUUAGUUUUGGAGUACUCGUGGUCG
The method, boiled down: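 Library with all eight P1ex-region intron nucleotides randomised, intron inside the knt kanamycin-resistance gene on pET-22b(+), in E. coli BL21(DE3). Cells grew overnight at 37°C or 30°C on LB agar with or without 25 μg/mL kanamycin (plus 100 μg/mL carbenicillin, 50 μM IPTG, 0.2% rhamnose), in six replicate transformations. Pooled colonies were amplicon-sequenced on Illumina HiSeq 2500. DiMSum fitness is the error-weighted combination of wild-type-normalised replicate fold changes, kanamycin versus none.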

This is an account of results in the supplement of paper PMC7877785.

± gives the uncertainty stated by the source.

CCUGAGCAAUAUUACGUGCA: the “self-splicing fitness (ln)” value is -3.09 ± 0.21 (30 °C) and -1.53 ± 0.26 (37 °C).

Consider CCCCAGCAAUAUUACGAAUA, for which the “self-splicing fitness (ln)” value (37 °C) was -1.41 ± 0.21.

Regarding AGGGAGCAAUAUUACGGUUG, the “self-splicing fitness (ln)” value was -2.87 ± 0.19 (30 °C) and -2.76 ± 0.36 (37 °C).

Take UAUUAGCAAUAUUACGAGGC: the “self-splicing fitness (ln)” value (37 °C) is -0.205 ± 0.23.

Consider UUCGAGCAAUAUUACGAUGG, for which the “self-splicing fitness (ln)” value reads like this: (30 °C) -3.47 ± 0.26; (37 °C) -1.45 ± 0.33.

Consider AUUGAGCAAUAUUACGGGCG, for which the “self-splicing fitness (ln)” value (37 °C) is -2.13 ± 0.34.

For AACAAGCAAUAUUACGACUG, the “self-splicing fitness (ln)” value reads like this: (30 °C) -0.961 ± 0.099; (37 °C) -0.786 ± 0.11.

In the case of UUCAAGCAAUAUUACGGAGU, the “self-splicing fitness (ln)” value is -3.82 ± 0.27 (30 °C) and -2.56 ± 0.23 (37 °C).

Take GUGGAGCAAUAUUACGCAUA: the “self-splicing fitness (ln)” value (37 °C) is -1.1 ± 0.4.

Turning to GGCGAGCAAUAUUACGUAAA, the “self-splicing fitness (ln)” value is -2.28 ± 0.16 (30 °C) and -1.06 ± 0.15 (37 °C).

For UUACAGCAAUAUUACGACUU, the “self-splicing fitness (ln)” value is, setting by setting: (30 °C) -1.06 ± 0.11; (37 °C) -0.932 ± 0.11.

With GAAAAGCAAUAUUACGAGAA, the “self-splicing fitness (ln)” value (30 °C) was -3.21 ± 0.48 and the “self-splicing fitness (ln)” value (37 °C) is -1.11 ± 0.23.

Regarding AGAAAGCAAUAUUACGCCCU, the “self-splicing fitness (ln)” value reads like this: (30 °C) 0.0807 ± 0.13; (37 °C) 0.131 ± 0.14.

As for AGUGAGCAAUAUUACGUAGU, the “self-splicing fitness (ln)” value was -4.14 ± 0.26 (30 °C) and -2.82 ± 0.26 (37 °C).

GUAAAGCAAUAUUACGGUAA: the “self-splicing fitness (ln)” value (30 °C) is -1.09 ± 0.086 and the “self-splicing fitness (ln)” value (37 °C) was -0.336 ± 0.11.

Regarding UAAUAGCAAUAUUACGGCUG, the “self-splicing fitness (ln)” value is, setting by setting: (30 °C) -0.00933 ± 0.11; (37 °C) -0.0273 ± 0.16.

For the sequence UGGAAGCAAUAUUACGUUGC, the “self-splicing fitness (ln)” value (30 °C) was -4.13 ± 0.47 and the “self-splicing fitness (ln)” value (37 °C) is -3.11 ± 0.4.

On to CAUAAGCAAUAUUACGCGAU, for which the “self-splicing fitness (ln)” value is, setting by setting: (30 °C) -3.46 ± 0.26; (37 °C) -3.08 ± 0.28.

As for AAGUAGCAAUAUUACGUUAA, the “self-splicing fitness (ln)” value is -2.47 ± 0.23 (30 °C) and -2.33 ± 0.18 (37 °C).

Take GGUCAGCAAUAUUACGAUAU: the “self-splicing fitness (ln)” value stood at 0.154 ± 0.071 (30 °C) and 0.391 ± 0.082 (37 °C).

With CUGUAGCAAUAUUACGCGGA, the “self-splicing fitness (ln)” value is -2.92 ± 0.23 (30 °C) and -2.91 ± 0.24 (37 °C).

In the case of AUAGAGCAAUAUUACGGUUU, the “self-splicing fitness (ln)” value is -0.828 ± 0.071 (30 °C) and -0.331 ± 0.098 (37 °C).

As for AGCAAGCAAUAUUACGGUGG, the “self-splicing fitness (ln)” value was -2.65 ± 0.1 (30 °C) and -2.32 ± 0.15 (37 °C).

Take CUGUAGCAAUAUUACGAACG: the “self-splicing fitness (ln)” value reads like this: (30 °C) 0.0721 ± 0.084; (37 °C) 0.403 ± 0.1.

CUGCAGCAAUAUUACGGGGU: the “self-splicing fitness (ln)” value (30 °C) was -4.93 ± 0.45 and the “self-splicing fitness (ln)” value (37 °C) is -2.73 ± 0.2.

For the sequence UACGAGCAAUAUUACGGUAG, the “self-splicing fitness (ln)” value is, setting by setting: (30 °C) -2.97 ± 0.14; (37 °C) -2.35 ± 0.17.

In the case of GACGAGCAAUAUUACGCUAC, the “self-splicing fitness (ln)” value by setting is: (30 °C) -2.62 ± 0.18; (37 °C) -2.54 ± 0.26.

UGAGAGCAAUAUUACGGAAU: where the note is “37 °C”, the “self-splicing fitness (ln)” value was 1.01 ± 0.35.

For UCUUAGCAAUAUUACGAACU, the “self-splicing fitness (ln)” value was -2.7 ± 0.36 (30 °C) and -1.84 ± 0.25 (37 °C).

In the case of AACUAGCAAUAUUACGUCUC, the “self-splicing fitness (ln)” value is -3.37 ± 0.16 (30 °C) and -2.54 ± 0.15 (37 °C).

In the case of CCGUAGCAAUAUUACGAGGU, the “self-splicing fitness (ln)” value was -3.33 ± 0.19 (30 °C) and -2.46 ± 0.22 (37 °C).

For UGUGAGCAAUAUUACGACGU, the “self-splicing fitness (ln)” value is -3.72 ± 0.18 (30 °C) and -2.29 ± 0.16 (37 °C).

On to CCUAAGCAAUAUUACGUCCA, for which the “self-splicing fitness (ln)” value (30 °C) was -3.28 ± 0.25 and the “self-splicing fitness (ln)” value (37 °C) is -2.1 ± 0.41.

As for UAUCAGCAAUAUUACGUUGG, the “self-splicing fitness (ln)” value is -2.48 ± 0.089 (30 °C) and -0.612 ± 0.1 (37 °C).

On to ACUUAGCAAUAUUACGGAUA, for which the “self-splicing fitness (ln)” value is -3.09 ± 0.28 (30 °C) and -1.15 ± 0.18 (37 °C).

Turning to ACUCAGCAAUAUUACGUGGA, the “self-splicing fitness (ln)” value runs as follows: (30 °C) -1.96 ± 0.078; (37 °C) -1.54 ± 0.082.

As for CCGAAGCAAUAUUACGGGCG, the “self-splicing fitness (ln)” value by setting is: (30 °C) -0.886 ± 0.066; (37 °C) -0.235 ± 0.074.

In the case of AUCCAGCAAUAUUACGCAAA, the “self-splicing fitness (ln)” value (30 °C) is -2.07 ± 0.16 and the “self-splicing fitness (ln)” value (37 °C) is -0.15 ± 0.11.

Take GACAAGCAAUAUUACGGCCG: the “self-splicing fitness (ln)” value (30 °C) is -0.239 ± 0.14 and the “self-splicing fitness (ln)” value (37 °C) is -0.53 ± 0.22.

Turning to UGAUAGCAAUAUUACGGGUU, the “self-splicing fitness (ln)” value is -3.88 ± 0.23 (30 °C) and -1.98 ± 0.17 (37 °C).
